Test results from patent publication US20040006018A1 (Genentech, published 2004).

Assays:
[1] = target: T1, Mouse LIF (leukemia inhibitory factor) (mouse, UniProt P09056 24-203); assay: 0.042 nM 125I-mouse LIF on M1 cells competed by unlabeled LIF, Scatchard, one-site fit
Description: (§1) Shown are competition and Scatchard (insert) plots of the data.

[2] = target: T1, Mouse LIF (leukemia inhibitory factor); assay: 0.047 nM 125I-mouse CT-1 on M1 cells competed by unlabeled LIF, Scatchard, one-site fit
Description: as §1

[3] = target: T1, Mouse LIF (leukemia inhibitory factor); assay: Scatchard analysis of binding to M1 cells, summary over both labeled ligands
[4] = target: T1, Mouse LIF (leukemia inhibitory factor); assay: binding of LIF to His-tagged soluble LIF receptor on Ni-NTA agarose
[5] = target: T1, Mouse LIF (leukemia inhibitory factor); assay: competition for 125I-human LIF binding to Hela cells

B1: Mouse LIF receptor on mouse M1 cells (LIF receptor complex with gp130) (receptor)
chain 1: LKRGVQDLKCTTNNMRVWDCTWPAPLGVSPGTVKDICIKDRFHSCHPLETTNVKIPALSPGDHEVTINYLNGFQSKFTLNEKDVSLIPETPEILDLSADFFTSSLLLKWNDRGSALPHPSNATWEIKVLQNPRTEPVALVLLNTMLSGKDTVQHWNWTSDLPLQCATHSVSIRWHIDSPHFSGYKEWSDWSPLKNISWIRNTETNVFPQDKVVLAGSNMTICCMSPTKVLSGQIGNTLRPLIHLYGQTVAIHILNIPVSENSGTNIIFITDDDVYGTVVFAGYPPDVPQKLSCETHDLKEIICSWNPGRITGLVGPRNTEYTLFESISGKSAVFHRIEGLTNETYRLGVQMHPGQEIHNFTLTGRNPLGQAQSAVVINVTERVAPHDPTSLKVKDINSTVVTFSWYLPGNFTKINLLCQIEICKANSKKEVRNATIRGAEDSTYHVAVDKLNPYTAYTFRVRCSSKTFWKWSRWSDEKRHLTTEATPSKGPDTWREWSSDGKNLIVYWKPLPINEANGKILSYNVSCSLNEETQSVLEIFDPQHRAEIQLSKNDYIISVVARNSAGSSPPSKIASMEIPNDDITVEQAVGLGNRIFLTWRHDPNMTCDYVIKWCNSSRSEPCLLDWRKVPSNSTETVIESDQFQPGVRYNFYLYGCTNQGYQLLRSIIGYVEELAPIVAPNFTVEDTSADSILVKWDDIPVEELRGFLRGYLFYFQKGERDTPKTRSLEPHHSDIKLKNITDISQKTLRIADLQGKTSYHLVLRAYTHGGLGPEKSMFVVTKENSVGLIIAILIPVAVAVIVGVVTSILCYRKREWIKETFYPDIPNPENCKALQFQKSVCEGSNALKTLEMNPCTPNNVEVLESRSIVPKIEDTEIISPVAERPGERSEVDPENHVVVSYCPPIIEEEITNPAADEVGGASQVVYIDVQSMYQPQAKAEEEQDVDPVVVAGYKPQMRLPISPAVEDTAAEDEEGKTAGYRPQANVNTWNLVSPDSPRSTDSNNEVVSFGSPCSINSRQFLIPPKDEDSPKSNGGGWSFTNFFQNKPND
chain 2: QLLEPCGYIYPEFPVVQRGSNFTAICVLKEACLQHYYVNASYIVWKTNHAAVPREQVTVINRTTSSVTFTDVVLPSVQLTCNILSFGQIEQNVYGVTMLSGFPPDKPTNLTCIVNEGKNMLCQWDPGRETYLETNYTLKSEWATEKFPDCQSKHGTSCMVSYMPTYYVNIEVWVEAENALGKVSSESINFDPVDKVKPTPPYNLSVTNSEELSSILKLSWVSSGLGGLLDLKSDIQYRTKDASTWIQVPLEDTMSPRTSFTVQDLKPFTEYVFRIRSIKDSGKGYWSDWSEEASGTTYEDRPSRPPSFWYKTNPSHGQEYRSVRLIWKALPLSEANGKILDYEVILTQSKSVSQTYTVTGTELTVNLTNDRYVASLAARNKVGKSAAAVLTIPSPHVTAAYSVVNLKAFPKDNLLWVEWTPPPKPVSKYILEWCVLSENAPCVEDWQQEDATVNRTHLRGRLLESKCYQITVTPVFATGPGGSESLKAYLKQAAPARGPTVRTKKVGKNEAVLAWDQIPVDDQNGFIRNYSISYRTSVGKEMVVHVDSSHTEYTLSSLSSDTLYMVRMAAYTDEGGKDGPEFTFTTPKFAQGEIEAIVVPVCLAFLLTTLLGVLFCFNKRDLIKKHIWPNVPDPSKSHIAQWSPHTPPRHNFNSKDQMYSDGNFTDVSVVEIEANNKKPCPDDLKSVDLFKKEKVSTEGHSSGIGGSSCMSSSRPSISSNEENESAQSTASTVQYSTVVHSGYRHQVPSVQVFSRSESTQPLLDSEERPEDLQLVDSVDGGDEILPRQPYFKQNCSQPEACPEISHFERSNQVLSGNEEDFVRLKQQQVSDHISQPYGSEQRRLFQEGSTADALGTGADGQMERFESVGMETTIDEEIPKSYLPQTVRQGGYMPQ
notes: whole, on cells; Endogenous receptor on M1 cells; also called LIFRβ
Kd [1]: 0.26 nM | Kd [2]: 0.19 nM | Kd [3]: ~0.2 nM

B2: Soluble mouse LIF receptor (extracellular domain, amino acids 1-826, with a C-terminal tag of 6 histidine residues) (receptor)
chain: LKRGVQDLKCTTNNMRVWDCTWPAPLGVSPGTVKDICIKDRFHSCHPLETTNVKIPALSPGDHEVTINYLNGFQSKFTLNEKDVSLIPETPEILDLSADFFTSSLLLKWNDRGSALPHPSNATWEIKVLQNPRTEPVALVLLNTMLSGKDTVQHWNWTSDLPLQCATHSVSIRWHIDSPHFSGYKEWSDWSPLKNISWIRNTETNVFPQDKVVLAGSNMTICCMSPTKVLSGQIGNTLRPLIHLYGQTVAIHILNIPVSENSGTNIIFITDDDVYGTVVFAGYPPDVPQKLSCETHDLKEIICSWNPGRITGLVGPRNTEYTLFESISGKSAVFHRIEGLTNETYRLGVQMHPGQEIHNFTLTGRNPLGQAQSAVVINVTERVAPHDPTSLKVKDINSTVVTFSWYLPGNFTKINLLCQIEICKANSKKEVRNATIRGAEDSTYHVAVDKLNPYTAYTFRVRCSSKTFWKWSRWSDEKRHLTTEATPSKGPDTWREWSSDGKNLIVYWKPLPINEANGKILSYNVSCSLNEETQSVLEIFDPQHRAEIQLSKNDYIISVVARNSAGSSPPSKIASMEIPNDDITVEQAVGLGNRIFLTWRHDPNMTCDYVIKWCNSSRSEPCLLDWRKVPSNSTETVIESDQFQPGVRYNFYLYGCTNQGYQLLRSIIGYVEELAPIVAPNFTVEDTSADSILVKWDDIPVEELRGFLRGYLFYFQKGERDTPKTRSLEPHHSDIKLKNITDISQKTLRIADLQGKTSYHLVLRAYTHGGLGPEKSMFVVTKEHHHHHH
notes: range 44-826; Expressed in human 293 cells, purified on Ni-NTA agarose; single band of 120 kDa; also called smLIFR; soluble LIF receptor
Kd [4]: 1.5 nM

B3: Human LIF receptor on human Hela cells (receptor)
chain: QKKGAPHDLKCVTNNLQVWNCSWKAPSGTGRGTDYEVCIENRSRSCYQLEKTSIKIPALSHGDYEITINSLHDFGSSTSKFTLNEQNVSLIPDTPEILNLSADFSTSTLYLKWNDRGSVFPHRSNVIWEIKVLRKESMELVKLVTHNTTLNGKDTLHHWSWASDMPLECAIHFVEIRCYIDNLHFSGLEEWSDWSPVKNISWIPDSQTKVFPQDKVILVGSDITFCCVSQEKVLSALIGHTNCPLIHLDGENVAIKIRNISVSASSGTNVVFTTEDNIFGTVIFAGYPPDTPQQLNCETHDLKEIICSWNPGRVTALVGPRATSYTLVESFSGKYVRLKRAEAPTNESYQLLFQMLPNQEIYNFTLNAHNPLGRSQSTILVNITEKVYPHTPTSFKVKDINSTAVKLSWHLPGNFAKINFLCEIEIKKSNSVQEQRNVTIKGVENSSYLVALDKLNPYTLYTFRIRCSTETFWKWSKWSNKKQHLTTEASPSKGPDTWREWSSDGKNLIIYWKPLPINEANGKILSYNVSCSSDEETQSLSEIPDPQHKAEIRLDKNDYIISVVAKNSVGSSPPSKIASMEIPNDDLKIEQVVGMGKGILLTWHYDPNMTCDYVIKWCNSSRSEPCLMDWRKVPSNSTETVIESDEFRPGIRYNFFLYGCRNQGYQLLRSMIGYIEELAPIVAPNFTVEDTSADSILVKWEDIPVEELRGFLRGYLFYFGKGERDTSKMRVLESGRSDIKVKNITDISQKTLRIADLQGKTSYHLVLRAYTDGGVGPEKSMYVVTKENSVGLIIAILIPVAVAVIVGVVTSILCYRKREWIKETFYPDIPNPENCKALQFQKSVCEGSSALKTLEMNPCTPNNVEVLETRSAFPKIEDTEIISPVAERPEDRSDAEPENHVVVSYCPPIIEEEIPNPAADEAGGTAQVIYIDVQSMYQPQAKPEEEQENDPVGGAGYKPQMHLPINSTVEDIAAEEDLDKTAGYRPQANVNTWNLVSPDSPRSIDSNSEIVSFGSPCSINSRQFLIPPKDEDSPKSNGGGWSFTNFFQNKPND
notes: whole, on cells; Endogenous receptor on cells; other subunits (gp130) not examined on these cells
binding result [5]: no binding
